Measurements: article PMC11853024

Experiments:
[1] = target: rat LH/chorionic gonadotropin receptor (rLH/CGR), in CHO-K1 cells (rat) (UniProt P16235)
[2] = target: rat FSH receptor (rFSHR), in CHO-K1 cells (rat) (UniProt P20395)
[3] = target: equine LH/chorionic gonadotropin receptor (eLH/CGR), in CHO-K1 cells (equine)
[4] = target: equine LH/chorionic gonadotropin receptor from pVSVG-eLH/CGR (pCORON1000 SP VSV-G), in HEK 293 cells (equine)

Chain of UniProt P20395 (P20395 18-692): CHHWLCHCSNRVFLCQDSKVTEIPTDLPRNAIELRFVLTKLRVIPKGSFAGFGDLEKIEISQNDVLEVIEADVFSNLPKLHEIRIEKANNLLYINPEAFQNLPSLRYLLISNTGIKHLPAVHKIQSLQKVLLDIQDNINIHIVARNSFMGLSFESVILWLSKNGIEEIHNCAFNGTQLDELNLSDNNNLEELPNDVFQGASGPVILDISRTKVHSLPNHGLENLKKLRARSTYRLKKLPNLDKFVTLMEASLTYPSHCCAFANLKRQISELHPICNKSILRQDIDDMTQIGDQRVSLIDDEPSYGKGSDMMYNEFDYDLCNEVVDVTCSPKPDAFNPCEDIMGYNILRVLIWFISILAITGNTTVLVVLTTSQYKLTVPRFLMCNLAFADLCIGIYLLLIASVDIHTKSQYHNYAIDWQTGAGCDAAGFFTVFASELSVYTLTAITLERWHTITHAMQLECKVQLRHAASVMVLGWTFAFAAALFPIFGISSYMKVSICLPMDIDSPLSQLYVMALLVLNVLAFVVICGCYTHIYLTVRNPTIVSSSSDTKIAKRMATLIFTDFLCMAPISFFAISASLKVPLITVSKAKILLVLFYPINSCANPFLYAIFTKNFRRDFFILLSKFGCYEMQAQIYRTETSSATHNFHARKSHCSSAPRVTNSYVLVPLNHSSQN
Chain of UniProt P16235 (P16235 27-700): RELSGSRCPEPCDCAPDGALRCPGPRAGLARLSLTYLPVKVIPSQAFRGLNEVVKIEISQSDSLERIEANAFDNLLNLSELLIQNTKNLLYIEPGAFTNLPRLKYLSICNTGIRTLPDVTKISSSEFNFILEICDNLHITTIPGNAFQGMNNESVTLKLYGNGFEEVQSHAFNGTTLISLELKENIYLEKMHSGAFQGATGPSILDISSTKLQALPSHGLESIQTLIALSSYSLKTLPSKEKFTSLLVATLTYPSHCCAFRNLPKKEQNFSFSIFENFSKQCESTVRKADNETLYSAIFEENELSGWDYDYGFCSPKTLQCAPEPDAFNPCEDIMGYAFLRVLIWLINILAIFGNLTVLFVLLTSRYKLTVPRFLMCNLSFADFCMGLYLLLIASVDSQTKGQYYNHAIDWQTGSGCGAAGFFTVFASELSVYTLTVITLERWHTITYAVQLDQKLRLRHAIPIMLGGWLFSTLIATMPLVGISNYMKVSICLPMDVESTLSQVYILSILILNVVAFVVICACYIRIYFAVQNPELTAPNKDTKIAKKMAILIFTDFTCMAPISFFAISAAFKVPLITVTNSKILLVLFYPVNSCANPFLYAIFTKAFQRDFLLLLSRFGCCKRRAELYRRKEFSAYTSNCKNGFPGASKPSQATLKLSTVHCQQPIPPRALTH

Substance: single-chain recombinant equine chorionic gonadotropin β/α (rec-eCG β/α) (from UniProt P08751 21-169) (ligand)
- cAMP production (HTRF) in CHO-K1 cells expressing rLH/CGR, 30 min with rec-eCG: EC50 [1]: 0.03 ng/mL
- cAMP production (HTRF) in CHO-K1 cells expressing rFSHR, 30 min with rec-eCG: EC50 [2]: 0.1 ng/mL
- cAMP production (HTRF) in CHO-K1 cells expressing eLH/CGR, 30 min with rec-eCG: EC50 [3]: 0.2 ng/mL
- pERK1/2 activation (HTRF) in HEK 293 cells expressing eLH/CGR, 50 and 250 ng/mL rec-eCG, 0 to 30 min, fold over basal activity [4]: 7.8 fold
